Data as given in PMC6047474.
Read-outs that look alike come from different tables or passages of the source. Values belong to the molecule of their own block, whether it stands above or below them.

Assays:
[1] = biological target: Histones (bovine), Sigma-Aldrich H9250 (bovine); test: ITC
[2] = biological target: Histones (bovine), Sigma-Aldrich H9250 (bovine); test: ITC; remark: listed apart in the source

Ka [1]: 1.35e+06 M⁻¹ | Kd [1]: 743 nM | dH [1]: -8.86 kcal/mol | Ka [2]: 1.15e+07 M⁻¹ | Kd [2]: 86.4 nM | dH [2]: -10.7 kcal/mol
Molecule: βL-crystallin (complex)

Ka [1]: 9.79e+06 M⁻¹ | Kd [1]: 102 nM | dH [1]: -15.8 kcal/mol | Ka [2]: 7.85e+06 M⁻¹ | Kd [2]: 127 nM | dH [2]: -13.4 kcal/mol
Molecule: γ-crystallin

Ka [1]: 3.42e+07 M⁻¹ | Kd [1]: 29.3 nM | Kd [2]: 400 nM | dH [2]: -6.29 kcal/mol
B1: α-crystallin (complex)
chain 1: MDIAIQHPWFKRALGPFYPSRLFDQFFGEGLFEYDLLPFLSSTISPYYRQSLFRTVLDSGVSEVRSDRDKFVIFLDVKHFSPEDLTVKVQEDFVEIHGKHNERQDDHGYISREFHRRYRLPSNVDQSALSCSLSADGMLTFSGPKVPSGVDAGHSERAIPVSREEKPSSAPTS
chain 2: MDIAIHHPWIRRPFFPFHSPSRLFDQFFGEHLLESDLFPASTSLSPFYFRPPSFLRAPSWIDTGLSEMRLEKDRFSVNLDVKHFSPEELKVKVLGDVIEVHGKHEERQDEHGFISREFHRKYRIPADVDPLTITSSLSSDGVLTVNGPRRQASGPERTIPITREEKPAVTAAPKK
